Test results from paper PMC9482650, “Quantitative fragmentomics allow affinity mapping of interactomes” (Nature Communications, 2022).

target: SCRIB_1, Q14160; experiment: holdup assay; set-up: key: below the threshold = too weak to quantify, mostly under pKd 3.1 to 4; settings: plain residues with an end cap or a label only (N-terminal biotin on a linker: ado-ado)
Sequence (Q14160 718-814): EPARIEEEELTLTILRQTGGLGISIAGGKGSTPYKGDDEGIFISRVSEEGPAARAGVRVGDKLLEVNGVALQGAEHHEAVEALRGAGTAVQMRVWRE

Binder | pKd
PRAEAEDSFL [PDGFRB, P09619] | 3.76
QGPVETESVV [SLC45A4, Q5BKX6] | 3.72
KKAPTNEFYA [SDC4, P31431] | below the threshold

target: T1, ARHGEF11, O15085; experiment: holdup assay; set-up: key: below the threshold = too weak to quantify, mostly under pKd 3.1 to 4; settings: plain residues with an end cap or a label only (N-terminal biotin on a linker: ado-ado)
T1 sequence (O15085 42-136, limits assumed, looked up): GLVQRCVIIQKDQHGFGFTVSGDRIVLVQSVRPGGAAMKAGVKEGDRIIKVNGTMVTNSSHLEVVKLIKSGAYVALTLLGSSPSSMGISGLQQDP

Binder | pKd
PRAEAEDSFL [PDGFRB, P09619] | 3.78
QGPVETESVV [SLC45A4, Q5BKX6] | 3.99
KKAPTNEFYA [SDC4, P31431] | below the threshold

target: ARHGEF12, Q9NZN5-2; experiment: holdup assay; set-up: key: below the threshold = too weak to quantify, mostly under pKd 3.1 to 4; settings: plain residues with an end cap or a label only (N-terminal biotin on a linker: ado-ado)
Sequence (Q9NZN5 other isoform, or with tags, fused parts or gaps): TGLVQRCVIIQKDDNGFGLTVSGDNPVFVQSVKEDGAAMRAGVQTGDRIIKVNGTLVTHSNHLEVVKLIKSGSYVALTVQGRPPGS

Binder | pKd
PRAEAEDSFL [PDGFRB, P09619] | 3.63
QGPVETESVV [SLC45A4, Q5BKX6] | below the threshold
KKAPTNEFYA [SDC4, P31431] | below the threshold

target: T2, DVL3, Q92997; experiment: holdup assay; set-up: key: below the threshold = too weak to quantify, mostly under pKd 3.1 to 4; settings: plain residues with an end cap or a label only (N-terminal biotin on a linker: ado-ado)
T2 sequence (Q92997 244-331, limits assumed, looked up): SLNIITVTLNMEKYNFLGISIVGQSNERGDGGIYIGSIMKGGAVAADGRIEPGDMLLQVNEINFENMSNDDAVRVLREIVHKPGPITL

Binder | pKd
PRAEAEDSFL [PDGFRB, P09619] | below the threshold
QGPVETESVV [SLC45A4, Q5BKX6] | below the threshold
KKAPTNEFYA [SDC4, P31431] | below the threshold

target: Inadl_3, Q8NI35; experiment: holdup assay; set-up: key: below the threshold = too weak to quantify, mostly under pKd 3.1 to 4; settings: plain residues with an end cap or a label only (N-terminal biotin on a linker: ado-ado)
Sequence (Q8NI35 359-469): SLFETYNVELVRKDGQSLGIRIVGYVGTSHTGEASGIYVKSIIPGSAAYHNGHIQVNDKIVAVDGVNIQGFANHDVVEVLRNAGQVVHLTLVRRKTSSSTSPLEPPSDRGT

Binder | pKd
PRAEAEDSFL [PDGFRB, P09619] | below the threshold
QGPVETESVV [SLC45A4, Q5BKX6] | 3.96
KKAPTNEFYA [SDC4, P31431] | below the threshold

target: T3, HTRA4, P83105; experiment: holdup assay; set-up: key: below the threshold = too weak to quantify, mostly under pKd 3.1 to 4; settings: plain residues with an end cap or a label only (N-terminal biotin on a linker: ado-ado)
T3 sequence (P83105 378-476, limits assumed, looked up): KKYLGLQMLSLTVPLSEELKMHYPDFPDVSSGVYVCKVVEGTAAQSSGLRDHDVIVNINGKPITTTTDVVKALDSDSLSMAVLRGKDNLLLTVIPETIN

Binder | pKd
PRAEAEDSFL [PDGFRB, P09619] | 3.98
QGPVETESVV [SLC45A4, Q5BKX6] | 3.97
KKAPTNEFYA [SDC4, P31431] | below the threshold

target: T4, MPP2, Q14168; experiment: holdup assay; set-up: key: below the threshold = too weak to quantify, mostly under pKd 3.1 to 4; settings: plain residues with an end cap or a label only (N-terminal biotin on a linker: ado-ado)
T4 sequence (Q14168 180-250, limits assumed, looked up): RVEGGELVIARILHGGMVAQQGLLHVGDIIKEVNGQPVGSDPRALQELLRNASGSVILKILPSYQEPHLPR

Binder | pKd
PRAEAEDSFL [PDGFRB, P09619] | below the threshold
QGPVETESVV [SLC45A4, Q5BKX6] | below the threshold
KKAPTNEFYA [SDC4, P31431] | below the threshold

target: T5, APBA2_1, Q99767; experiment: holdup assay; set-up: key: below the threshold = too weak to quantify, mostly under pKd 3.1 to 4; settings: plain residues with an end cap or a label only (N-terminal biotin on a linker: ado-ado)
T5 sequence (Q99767 563-664, limits assumed, looked up): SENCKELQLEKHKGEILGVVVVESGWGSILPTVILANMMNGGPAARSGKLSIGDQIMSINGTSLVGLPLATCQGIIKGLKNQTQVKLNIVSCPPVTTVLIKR

Binder | pKd
PRAEAEDSFL [PDGFRB, P09619] | 3.66
QGPVETESVV [SLC45A4, Q5BKX6] | below the threshold
KKAPTNEFYA [SDC4, P31431] | below the threshold

target: T6, SNTG1, Q9NSN8; experiment: holdup assay; set-up: key: below the threshold = too weak to quantify, mostly under pKd 3.1 to 4; settings: plain residues with an end cap or a label only (N-terminal biotin on a linker: ado-ado)
T6 sequence (Q9NSN8 52-150, limits assumed, looked up): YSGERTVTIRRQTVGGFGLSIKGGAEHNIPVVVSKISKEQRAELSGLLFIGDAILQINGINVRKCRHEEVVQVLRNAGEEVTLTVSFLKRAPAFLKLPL

Binder | pKd
PRAEAEDSFL [PDGFRB, P09619] | below the threshold
QGPVETESVV [SLC45A4, Q5BKX6] | 4.75
KKAPTNEFYA [SDC4, P31431] | below the threshold

target: T7, APBA1_2, Q02410; experiment: holdup assay; set-up: key: below the threshold = too weak to quantify, mostly under pKd 3.1 to 4; settings: plain residues with an end cap or a label only (N-terminal biotin on a linker: ado-ado)
T7 sequence (Q02410 742-832, limits assumed, looked up): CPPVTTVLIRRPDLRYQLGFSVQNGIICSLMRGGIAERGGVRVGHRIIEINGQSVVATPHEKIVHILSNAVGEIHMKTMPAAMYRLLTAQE

Binder | pKd
PRAEAEDSFL [PDGFRB, P09619] | 3.65
QGPVETESVV [SLC45A4, Q5BKX6] | 3.79
KKAPTNEFYA [SDC4, P31431] | below the threshold

target: GRIP2_3, Q9C0E4; experiment: holdup assay; set-up: key: below the threshold = too weak to quantify, mostly under pKd 3.1 to 4; settings: plain residues with an end cap or a label only (N-terminal biotin on a linker: ado-ado)
Sequence (Q9C0E4 238-339): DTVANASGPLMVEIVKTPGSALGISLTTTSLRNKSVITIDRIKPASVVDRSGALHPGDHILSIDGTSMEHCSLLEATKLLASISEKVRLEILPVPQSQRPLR

Binder | pKd
PRAEAEDSFL [PDGFRB, P09619] | below the threshold
QGPVETESVV [SLC45A4, Q5BKX6] | below the threshold
KKAPTNEFYA [SDC4, P31431] | below the threshold

target: T8, MPDZ_12, O75970; experiment: holdup assay; set-up: key: below the threshold = too weak to quantify, mostly under pKd 3.1 to 4; settings: plain residues with an end cap or a label only (N-terminal biotin on a linker: ado-ado)
T8 sequence (O75970 1857-1958, limits assumed, looked up): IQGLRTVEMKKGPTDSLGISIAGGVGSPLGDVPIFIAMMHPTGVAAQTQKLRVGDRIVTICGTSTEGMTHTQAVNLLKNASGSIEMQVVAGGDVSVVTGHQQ

Binder | pKd
PRAEAEDSFL [PDGFRB, P09619] | below the threshold
QGPVETESVV [SLC45A4, Q5BKX6] | 3.5
KKAPTNEFYA [SDC4, P31431] | below the threshold

target: LIMK2, P53671; experiment: holdup assay; set-up: key: below the threshold = too weak to quantify, mostly under pKd 3.1 to 4; settings: plain residues with an end cap or a label only (N-terminal biotin on a linker: ado-ado)
Sequence (P53671 143-248): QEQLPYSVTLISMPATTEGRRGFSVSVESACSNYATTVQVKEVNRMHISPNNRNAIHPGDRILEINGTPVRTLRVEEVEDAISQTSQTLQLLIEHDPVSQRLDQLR

Binder | pKd
PRAEAEDSFL [PDGFRB, P09619] | below the threshold
QGPVETESVV [SLC45A4, Q5BKX6] | below the threshold
KKAPTNEFYA [SDC4, P31431] | below the threshold

target: TJP1_2, Q07157; experiment: holdup assay; set-up: key: below the threshold = too weak to quantify, mostly under pKd 3.1 to 4; settings: plain residues with an end cap or a label only (N-terminal biotin on a linker: ado-ado)
Sequence (Q07157 181-274): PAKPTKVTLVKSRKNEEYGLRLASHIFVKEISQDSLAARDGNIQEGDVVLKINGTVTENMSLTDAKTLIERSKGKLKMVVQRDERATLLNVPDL

Binder | pKd
PRAEAEDSFL [PDGFRB, P09619] | 3.58
QGPVETESVV [SLC45A4, Q5BKX6] | 3.54
KKAPTNEFYA [SDC4, P31431] | below the threshold

target: T9, TIAM2, Q8IVF5; experiment: holdup assay; set-up: key: below the threshold = too weak to quantify, mostly under pKd 3.1 to 4; settings: plain residues with an end cap or a label only (N-terminal biotin on a linker: ado-ado)
T9 sequence (Q8IVF5 885-986, limits assumed, looked up): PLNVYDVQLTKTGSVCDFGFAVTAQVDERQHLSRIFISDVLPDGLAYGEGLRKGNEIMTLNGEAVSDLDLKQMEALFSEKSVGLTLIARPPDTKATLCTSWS

Binder | pKd
PRAEAEDSFL [PDGFRB, P09619] | below the threshold
QGPVETESVV [SLC45A4, Q5BKX6] | below the threshold
KKAPTNEFYA [SDC4, P31431] | 3.94

target: MAST2, Q6P0Q8; experiment: holdup assay; set-up: key: below the threshold = too weak to quantify, mostly under pKd 3.1 to 4; settings: plain residues with an end cap or a label only (N-terminal biotin on a linker: ado-ado)
Sequence (Q6P0Q8 1099-1202): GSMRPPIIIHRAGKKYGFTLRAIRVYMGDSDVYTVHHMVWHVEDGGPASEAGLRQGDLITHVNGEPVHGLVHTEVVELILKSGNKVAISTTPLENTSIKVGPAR

Binder | pKd
PRAEAEDSFL [PDGFRB, P09619] | 5.62
QGPVETESVV [SLC45A4, Q5BKX6] | 4.73
KKAPTNEFYA [SDC4, P31431] | below the threshold

target: T10, PDZD7_3, Q9H5P4; experiment: holdup assay; set-up: key: below the threshold = too weak to quantify, mostly under pKd 3.1 to 4; settings: plain residues with an end cap or a label only (N-terminal biotin on a linker: ado-ado)
T10 sequence (Q9H5P4 857-944, limits assumed, looked up): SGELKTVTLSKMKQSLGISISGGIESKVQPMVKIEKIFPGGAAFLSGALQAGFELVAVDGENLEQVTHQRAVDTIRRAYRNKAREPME

Binder | pKd
PRAEAEDSFL [PDGFRB, P09619] | 3.56
QGPVETESVV [SLC45A4, Q5BKX6] | 4.56
KKAPTNEFYA [SDC4, P31431] | below the threshold

target: T11, MPP7, Q5T2T1; experiment: holdup assay; set-up: key: below the threshold = too weak to quantify, mostly under pKd 3.1 to 4; settings: plain residues with an end cap or a label only (N-terminal biotin on a linker: ado-ado)
T11 sequence (Q5T2T1 134-230, limits assumed, looked up): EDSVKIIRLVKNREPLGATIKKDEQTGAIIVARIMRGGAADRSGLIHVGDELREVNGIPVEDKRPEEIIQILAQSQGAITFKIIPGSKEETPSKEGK

Binder | pKd
PRAEAEDSFL [PDGFRB, P09619] | below the threshold
QGPVETESVV [SLC45A4, Q5BKX6] | below the threshold
KKAPTNEFYA [SDC4, P31431] | below the threshold

target: T12, GRIP1_7, Q9Y3R0; experiment: holdup assay; set-up: key: below the threshold = too weak to quantify, mostly under pKd 3.1 to 4; settings: plain residues with an end cap or a label only (N-terminal biotin on a linker: ado-ado)
T12 sequence (Q9Y3R0 999-1096, limits assumed, looked up): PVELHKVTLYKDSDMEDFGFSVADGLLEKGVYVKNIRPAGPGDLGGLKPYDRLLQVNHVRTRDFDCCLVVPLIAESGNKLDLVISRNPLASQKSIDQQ

Binder | pKd
PRAEAEDSFL [PDGFRB, P09619] | below the threshold
QGPVETESVV [SLC45A4, Q5BKX6] | below the threshold
KKAPTNEFYA [SDC4, P31431] | below the threshold

target: T13, NHERF3_3, Q5T2W1; experiment: holdup assay; set-up: key: below the threshold = too weak to quantify, mostly under pKd 3.1 to 4; settings: plain residues with an end cap or a label only (N-terminal biotin on a linker: ado-ado)
T13 sequence (Q5T2W1 238-333, limits assumed, looked up): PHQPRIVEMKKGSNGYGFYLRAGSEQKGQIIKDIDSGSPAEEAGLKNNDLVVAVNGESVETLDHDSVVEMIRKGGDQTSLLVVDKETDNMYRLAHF

Binder | pKd
PRAEAEDSFL [PDGFRB, P09619] | below the threshold
QGPVETESVV [SLC45A4, Q5BKX6] | below the threshold
KKAPTNEFYA [SDC4, P31431] | below the threshold

target: GOPC, Q9HD26; experiment: holdup assay; set-up: key: below the threshold = too weak to quantify, mostly under pKd 3.1 to 4; settings: plain residues with an end cap or a label only (N-terminal biotin on a linker: ado-ado)

Binder | pKd
PRAEAEDSFL [PDGFRB, P09619] | below the threshold
QGPVETESVV [SLC45A4, Q5BKX6] | 3.54
KKAPTNEFYA [SDC4, P31431] | below the threshold

target: DLG5_1, Q8TDM6; experiment: holdup assay; set-up: key: below the threshold = too weak to quantify, mostly under pKd 3.1 to 4; settings: plain residues with an end cap or a label only (N-terminal biotin on a linker: ado-ado)
Sequence (Q8TDM6 617-713): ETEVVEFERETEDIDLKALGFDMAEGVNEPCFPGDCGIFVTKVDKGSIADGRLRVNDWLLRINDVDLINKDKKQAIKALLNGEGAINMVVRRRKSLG

Binder | pKd
PRAEAEDSFL [PDGFRB, P09619] | 3.48
QGPVETESVV [SLC45A4, Q5BKX6] | below the threshold
KKAPTNEFYA [SDC4, P31431] | below the threshold

target: T14, LNX2_2, Q8N448; experiment: holdup assay; set-up: key: below the threshold = too weak to quantify, mostly under pKd 3.1 to 4; settings: plain residues with an end cap or a label only (N-terminal biotin on a linker: ado-ado)
T14 sequence (Q8N448 334-432, limits assumed, looked up): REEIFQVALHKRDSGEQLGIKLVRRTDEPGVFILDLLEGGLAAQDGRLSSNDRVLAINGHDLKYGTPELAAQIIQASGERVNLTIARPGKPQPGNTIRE

Binder | pKd
PRAEAEDSFL [PDGFRB, P09619] | 3.54
QGPVETESVV [SLC45A4, Q5BKX6] | 4.31
KKAPTNEFYA [SDC4, P31431] | below the threshold

target: HTRA2, O43464; experiment: holdup assay; set-up: key: below the threshold = too weak to quantify, mostly under pKd 3.1 to 4; settings: plain residues with an end cap or a label only (N-terminal biotin on a linker: ado-ado)
Sequence (O43464 355-458): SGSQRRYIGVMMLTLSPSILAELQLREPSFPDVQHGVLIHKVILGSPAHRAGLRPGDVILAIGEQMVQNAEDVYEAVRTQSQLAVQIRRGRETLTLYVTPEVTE

Binder | pKd
PRAEAEDSFL [PDGFRB, P09619] | below the threshold
QGPVETESVV [SLC45A4, Q5BKX6] | below the threshold
KKAPTNEFYA [SDC4, P31431] | below the threshold
